Reference: patent US20130052198A1, “ANTI-INFLAMMATORY FACTORS” (THE GENERAL HOSPITAL CORPORATION, priority 2010, published 2013)
Entries after “also recorded” stand apart in the source; their conditions may differ.

B1: HAPLN1: Hyaluronan and proteoglycan link protein 1; purified, recombinant form (protein, UniProt P10915 16-354, looked up)
Hyaluronan and proteoglycan …: DHLSDNYTLDHDRAIHIQAENGPHLLVEAEQAKVFSHRGGNVTLPCKFYRDPTAFGSGIHKIRIKWTKLTSDYLKEVDVFVSMGYHKKTYGGYQGRVFLKGGSDSDASLVITDLTLEDYGRYKCEVIEGLEDDTVVVALDLQGVVFPYFPRLGRYNLNFHEAQQACLDQDAVIASFDQLYDAWRGGLDWCNAGWLSDGSVQYPITKPREPCGGQNTVPGVRNYGFWDKDKSRYDVFCFTSNFNGRFYYLIHPTKLTYDEAVQACLNDGAQIAKVGQIFAAWKILGYDRCDAGWLADGSVRYPISRPRRRCSPTEAAVRFVGFPDKKHKLYGVYCFRAYN
B2: MFAP5: Microfibrillar-associated protein 5, ECM glycoprotein; recombinant form tested (protein, UniProt Q13361 22-173, looked up)
Microfibrillar-associated …: IPLGVNSQRGDDVTQATPETFTEDPNLVNDPATDETVLAVLADIAPSTDDLASLSEKNTTAECWDEKFTCTRLYSVHRPVKQCIHQLCFTSLRRMYIVNKEICSRLVCKEHEAMKDELCRQMAGLPPRRLRRSNYFRLPPCENVDLQRPNGL

Legend:
leukocytes = assay: IFN-γ production by LPS-stimulated leukocytes, ELISA; format: cell-based, human
Procedure: (§1) Leukocytes were prepared from fresh whole human blood, collected and spun in the presence of Ficoll for 30 minutes at 1500×g. The mononuclear cell layer was transferred to a new tube where it was washed once with RPMI 1640. The mononuclear cells were plated at a density of 1×10^5 per well of a 96-well plate in 50 μL of RPMI 1640 per well. MSC-CM was then immediately added to each well and allowed to incubate in the presence of the mononuclear cells for 16 hours. After incubation, 50 μL of RPMI 1640 containing 10 μg/mL of LPS was added to each well and allowed to incubate for an additional 5 hours. The resultant supernatants were collected and analyzed via ELISA for human interleukin-10 (IL-10). This procedure of incubating leukocytes with MSC-CM to determine IL-10 stimulating activity will be henceforth referred to as the “IL-10 assay”.
(§2) Preparations and use of MSC-CM, Fb-CM, LPS-stimulated MSC-CM, leukocytes were as described in Examples 1-3 and the Figures. These conditioned media preparations were added to leukocyte cultures for 16 hours, after which the culture was stimulated with LPS at 10 μg/ml. The medium from this culture was collected 24 hours after LPS stimulation of leukocytes and analyzed using an IFN-γ ELISA.

[1] = system: human leukocytes in culture; assay: Cytokine production (IL-10 or IFN-γ) in human leukocytes in culture; format: cell-based; details: concentrations within five orders of magnitude of 10 μg/mL
Procedure: as §1, §2

[2] = system: human peripheral blood mononuclear cells (PBMCs); assay: PBMC potency assay (IL-10 assay): IL-10 secretion by LPS-stimulated PBMCs, ELISA; format: cell-based; details: recombinant molecules diluted in RPMI 1640
Excerpt: FIG. 1: MSC conditioned medium causes peripheral blood mononuclear cells to secrete IL-10 in response to LPS, providing the basis for differential gene expression analysis to identify genes responsible for the increased activity. (a) Generalized schematic of EPS methodology. Protein products are derived from various cell types in the form of conditioned media and screened for activity in an in vitro potency assay. […] Recombinant protein products of the enriched gene list are then screened in a potency assay and the candidates with the highest activity are assessed for activity in vivo. (b) In vitro potency assay. This assay entails incubating primary human peripheral blood mononuclear cells (PBMCs) in the presence of protein products (e.g., conditioned medium from a cell) for 16 hours, followed by stimulation of the PBMCs with LPS for five hours, and measurement of IL-10 secretion into the supernatant via ELISA. (c) Time course of IL-10 expression from PBMCs when incubated with either bone marrow stromal cell conditioned medium (BMSC-CM) or unconditioned medium (DMEM) in the potency assay. (d) Comparison of potency assay activity of conditioned medium from normal human dermal fibroblasts (FB-CM), BMSCs (BMSC-CM) and BMSCs preincubated with LPS prior to conditioning (BMSCLPS-CM). * p<0.001 compared to FB-CM, ** p<0.001 compared to BMSC-CM. (e) Schematic of the differential gene expression comparison strategy to select for genes uniquely expressed at high levels in LPS stimulated MSCs (MSCLPS) compared to MSCs and fibroblasts (FBs). Analysis was then conducted on the genes identified to select for genes that were most likely to be responsible for secreted proteins. MSCLPS, LPS stimulated MSC; FB, fibroblast. […]
Leukocytes were prepared from fresh whole human blood, collected and spun in the presence of Ficoll for 30 minutes at 1500×g. […] The resultant supernatants were collected and analyzed via ELISA for human interleukin-10 (IL-10). […]

[3] = system: colitic mice (TNBS colitis); assay: TNBS colitis in mice, colon histopathology; format: in vivo; details: 3 μg protein twice over 24 h; sacrifice at day 2; compared to vehicle (saline)
Procedure: FIG. 6: Administered MFAP5 and LGALS3BP protect mice from developing TNBS colitis. Mice were presensitized via the skin with 1% TNBS one week prior to intra-rectal administration of 3 mg of TNBS per mouse in a mixture of 50% EtOH and 50% sterile water to induce colitis. Mice were treated with 3 μg each of MFAP5, LGALS3BP and GALNT1 twice over a 24 hour period, once in conjunction with the TNBS administration and once 24 hours later. Mice were then sacrificed at day 2 and tissue collected for analysis. As expected, mice treated with vehicle (saline) developed extensive inflammation of the colon with loss of crypts and frank necrosis of the intestinal epithelium.
MFAP5, LGALS3BP and PENK all protected the colonic epithelium from the hallmark features of TNBS colitis: necrosis, inflammatory infiltrate and loss of crypts. Especially at the microscopic level, the tissue of the MFAP5, LGALS3BP and PENK treated animals looked mostly normal with minor foci of inflammation and edema.

[4] = system: BALB/cJ mice challenged with a sub-lethal dose of LPS; assay: In vivo LPS assay, sub-lethal LPS model: serum cytokines and lung histology
Procedure: (§3) FIG. 8: In vivo hit screen and survival study. (a) Schematic of the in vivo LPS assay. Proteins were administered intraperitoneal (IP) at the concentration that elicited the strongest effect in vitro, followed by IP administration of LPS in conjunction with a second dose of the proteins 16 hours later. Two days after the combined LPS and second protein dose, the mice were sacrificed and assessed for changes in serum cytokines and tissue histology. (b) Serum IL-10 levels of BALB/cJ mice subjected to the in vivo LPS assay. * p<0.001 compared to saline. (c) Serum TNF-α levels of BALB/cJ mice subjected to the in vivo LPS assay. * p<0.001 compared to saline, ** p<0.05 compared to BMSC-CM. (d) Representative micrographs of lung tissue from mice subjected to the in vivo LPS assay stained with hematoxylin and eosin. (e) Survival of mice subjected to a lethal dose of LPS i.p. (350 μg) concurrently with i.p. saline vehicle (bold dark blue line), 5 μg Anti-TNF-α antibody (thin dark blue line), 4 μg PENK (bold light blue line) or 4 μg MFAP5 (thin light blue line). Scale bar=200 μm.
All procedures were performed in accordance with the animal rights policies of the Massachusetts General Hospital Subcommittee on Research Animal Care. For the sub-lethal LPS model, eight week old female BALB/cJ mice (n≧3) (Jackson Laboratories, Bar Harbor, Me.) were administered an initial dose of either vehicle or one of the experimental therapies IP: 200 μL of saline (vehicle), or 3 μg of protein (e.g., GALNT1, LGALS3BP, MFAP5 or PENK) diluted in 200 μL of saline, or 1 mL of 1×BMSC-CM. 16 hours later, mice received a second dose of either vehicle or therapy in conjunction with a dose of 100 μg of LPS (E. coli 0111:B4; Sigma, St. Louis, Mo.) diluted in physiological saline. 48 hours later, mice were sacrificed and tissue and blood were collected for analysis. Serum was tested for the presence of IL-10 and TNF-α via ELISA and lungs, livers and kidneys of the animals were preserved for hematoxylin and eosin staining. For the lethal LPS model, eight week old female BALB/cJ mice (n≧5) were co-administered a lethal dose of LPS (350 μg LPS in 100 μL physiological saline) and either vehicle (negative control), 5 μg anti-TNF-α (positive control; R&D Systems, Minneapolis, Minn.), 4 μg MFAP5 diluted in 100 μL of physiological saline, or 4 μg of PENK diluted in 100 μL of physiological saline. Mice were monitored for survival for seven days (168 hours).

[5] = system: BALB/cJ mice challenged with a lethal dose of LPS; assay: Lethal LPS model, survival; format: in vivo; details: 350 μg LPS i.p. with 4 μg protein; monitored seven days
Procedure: as §3
All procedures were performed in accordance with the animal rights policies of the Massachusetts General Hospital Subcommittee on Research Animal Care. […] Mice were monitored for survival for seven days (168 hours).

[6] = 3 μg protein or 1 mL 1×BMSC-CM IP, twice, 100 μg LPS, 48 h later, compared to saline

Row | Molecule | IFN-γ production of leukocytes stimulated with LPS (leukocytes; 16 h incubation, LPS 10 μg/ml, medium collected 24 h after LPS) | dose-dependency of IFN-γ production (leukocytes; HAPLN1 diluted in RPMI 1640) | promote IL-10 production or suppress IFN-γ production [1] | increase of IL-10 production compared to 10×MSC-CM [2] | protection from TNBS colitis (colon histopathology) [3] | serum IL-10 levels [4, 6] | serum TNF-α [4, 6] | lung histology (lung protection) ([4]; hematoxylin and eosin, sub-lethal LPS model, compared to vehicle) | TNF-α suppression compared to BMSC-CM ([4]; serum, sub-lethal LPS model) | survival [5]
1 | B1 | independently reduce IFN-γ production | dose-dependency of IFN-γ production over several orders of magnitude | either promote IL-10 production or suppress IFN-γ production | – | – | – | – | – | – | –
2 | B2 | – | – | either promote IL-10 production or suppress IFN-γ production | superior to that induced by 10×MSC-CM | protect the mice from developing acute colitis; also recorded: significant attenuation of colitis; also recorded: protected from developing extensive colonic inflammation | Significantly elevated | significantly suppressed | superior lung protection | superior TNF-α suppression | significant survival benefit
